Reference: paper PMC12339391, “PEX39 facilitates the peroxisomal import of PTS2-containing proteins” (Nature Cell Biology, 2025)
Where no end group is shown, it is not given here.

T1: FLAG-PEX7 (recombinant N-terminally FLAG-tagged human PEX7) (human, UniProt O00628 1-323)
T1 construct: PEX7, human; also called recombinant human FLAG-tagged PEX7; source: Hi5 insect cells (baculovirus, pACEBac1), purified (anti-FLAG M2 beads, FLAG peptide elution); not shown: FLAG, N-terminal, kept
T1 sequence (looked up): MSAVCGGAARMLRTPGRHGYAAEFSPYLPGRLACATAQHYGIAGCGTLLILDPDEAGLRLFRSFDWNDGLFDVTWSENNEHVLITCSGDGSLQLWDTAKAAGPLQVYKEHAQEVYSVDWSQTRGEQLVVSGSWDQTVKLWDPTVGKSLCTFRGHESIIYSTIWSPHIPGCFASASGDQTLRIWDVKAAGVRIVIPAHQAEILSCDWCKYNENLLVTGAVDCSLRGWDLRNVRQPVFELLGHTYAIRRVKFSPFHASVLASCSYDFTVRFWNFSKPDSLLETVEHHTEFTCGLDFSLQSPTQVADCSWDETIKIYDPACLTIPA


Legend:
[1] = biological target: T1, FLAG-PEX7 (recombinant N-terminally …); assay: native gel or EMSA; only recombinant proteins, two at a time (approximately 5 µg each of FLAG-PEX7, GST-HsPEX39, His-PEX5(1–324), His-PHYH); Coomassie staining; excised bands immunoblotted; conditions: both partners purified
[2] = biological target: T1, FLAG-PEX7 (recombinant N-terminally …); assay: SEC; Superdex 200 Increase 3.2/300, 50 mM Tris-HCl pH 7.5, 150 mM NaCl, 1 mM EDTA; proteins (10–15 µg) alone or mixed, 15 min at 23 °C before injection; fractions on SDS-PAGE; conditions: both partners purified

binding result [1] | binding result [2] | Binder
binds |  | GST-HsPEX39 (N-terminally GST-tagged human PEX39, C6ORF226) (natural protein, UniProt Q5I0X4 1-101, looked up, HsPEX39 (C6ORF226), human; plasmid pGEX-HsPEX39 (pGEX-6-P1); 101 residues by the printed limits of the 48–101 variant; also called recombinant HsPEX39; wild-type (WT) HsPEX39; source: E. coli BL21(DE3), purified (Glutathione Sepharose 4B); not shown: GST, N-terminal, kept) MERPRSPQCSAPASASASVTLAQLLQLVQQGQELPGLEKRHIAAIHGEPTASRLPRRPKPWEAAALAESLPPPTLRIGTAPAEPGLVEAATAPSSWHTVGP
 | binds | MASQPPPPPKPWETRRIPGAGPGPGPGPTFQSADLG (domain or fragment, human, UniProt Q92968 1-36, looked up, also: fused to Sumo1 with a hexa-histidine tag, PEX13, human, residues 1–36; also called NtPEX13.Sumo.His; PEX13 N terminus; source: recombinant (plasmid pET23a-NtPEX13.Sumo.His); not shown: His6, C-terminal, kept) [NtPEX13 (HsPEX13 residues 1–36 fused to Sumo1 with a hexa-histidine tag)]
